Reference: US20240150447A1

What was measured:
[1] = biological target: human FcRn and human B2M (beta-2-microglobulin) expressed on MDCK II cells (human) (UniProt P55899); assay: cell-based or functional assay
[2] = biological target: human FcRn protein (human) (UniProt P55899); assay: SPR, Ab on Protein L chip, hFcRn in flow, pH 6.0
[3] = biological target: human FcRn protein (human) (UniProt P55899); assay: SPR, Ab on Protein L chip, hFcRn in flow, pH 7.4

A Transcytosis Normalized to IAHA at pH 6.0 (ratio to IAHA) [1] of 190 was found for “anti-O4 hIgG1 M252Y/T256A/V308P/N434W (antibody)” in this work.
A Transcytosis Normalized to IAHA at pH 6.0 (ratio to IAHA) [1] of 193 was found for “anti-O4 hIgG1 M252Y/T256A/V308P/N434Y (antibody)” in this work.
A Transcytosis Normalized to IAHA at pH 6.0 (ratio to IAHA) [1] of 153 was found for “anti-O4 hIgG1 M252Y/T256D/V308P/N434W (antibody)” in this work.
A Transcytosis Normalized to IAHA at pH 6.0 (ratio to IAHA) [1] of 182 was found for “anti-O4 hIgG1 M252Y/T256E/V308P/N434F (antibody)” in this work.
A Transcytosis Normalized to IAHA at pH 6.0 (ratio to IAHA) [1] of 155 was found for “anti-O4 hIgG1 M252Y/T256E/V308P/N434H (antibody)” in this work.
A Transcytosis Normalized to IAHA at pH 6.0 (ratio to IAHA) [1] of 154 was found for “anti-O4 hIgG1 M252Y/T256E/V308P/N434W (antibody)” in this work.
A Transcytosis Normalized to IAHA at pH 6.0 (ratio to IAHA) [1] of 124 was found for “anti-O4 hIgG1 M252Y/T256E/V308P/N434Y (antibody)” in this work.
A Transcytosis Normalized to IAHA at pH 6.0 (ratio to IAHA) [1] of 60.4 was found for “anti-O4 hIgG1 M252Y/T256F/V308P/N434F (antibody)” in this work.
A Transcytosis Normalized to IAHA at pH 6.0 (ratio to IAHA) [1] of 193 was found for “anti-O4 hIgG1 M252Y/T256F/V308P/N434Y (antibody)” in this work.
A Transcytosis Normalized to IAHA at pH 6.0 (ratio to IAHA) [1] of 130 was found for “anti-O4 hIgG1 M252Y/T256G/V308P/N434Y (antibody)” in this work.
A Transcytosis Normalized to IAHA at pH 6.0 (ratio to IAHA) [1] of 192 was found for “anti-O4 hIgG1 M252Y/T256H/V308P/N434F (antibody)” in this work.
A Transcytosis Normalized to IAHA at pH 6.0 (ratio to IAHA) [1] of 126 was found for “anti-O4 hIgG1 M252Y/T256I/V308P/N434Y (antibody)” in this work.
A Transcytosis Normalized to IAHA at pH 6.0 (ratio to IAHA) [1] of 217 was found for “anti-O4 hIgG1 M252Y/T256L/V308P/N434W (antibody)” in this work.
A Transcytosis Normalized to IAHA at pH 6.0 (ratio to IAHA) [1] of 303 was found for “anti-O4 hIgG1 M252Y/T256L/V308P/N434Y (antibody)” in this work.
A Transcytosis Normalized to IAHA at pH 6.0 (ratio to IAHA) [1] of 174 was found for “anti-O4 hIgG1 M252Y/T256N/V308P/N434Y (antibody)” in this work.
A Transcytosis Normalized to IAHA at pH 6.0 (ratio to IAHA) [1] of 208 was found for “anti-O4 hIgG1 M252Y/T256P/V308P/N434W (antibody)” in this work.
A Transcytosis Normalized to IAHA at pH 6.0 (ratio to IAHA) [1] of 132 was found for “anti-O4 hIgG1 M252Y/T256P/V308P/N434Y (antibody)” in this work.
A Transcytosis Normalized to IAHA at pH 6.0 (ratio to IAHA) [1] of 156 was found for “anti-O4 hIgG1 M252Y/T256Q/V308P/N434W (antibody)” in this work.
A Transcytosis Normalized to IAHA at pH 6.0 (ratio to IAHA) [1] of 286 was found for “anti-O4 hIgG1 M252Y/T256Q/V308P/N434Y (antibody)” in this work.
A Transcytosis Normalized to IAHA at pH 6.0 (ratio to IAHA) [1] of 162 was found for “anti-O4 hIgG1 M252Y/T256R/V308P/N434W (antibody)” in this work.
A Transcytosis Normalized to IAHA at pH 6.0 (ratio to IAHA) [1] of 655 was found for “anti-O4 hIgG1 M252Y/T256R/V308P/N434Y (antibody)” in this work.
A Transcytosis Normalized to IAHA at pH 6.0 (ratio to IAHA) [1] of 159 was found for “anti-O4 hIgG1 M252Y/T256S/V308P/N434W (antibody)” in this work.
A Transcytosis Normalized to IAHA at pH 6.0 (ratio to IAHA) [1] of 156 was found for “anti-O4 hIgG1 M252Y/T256S/V308P/N434Y (antibody)” in this work.
A Transcytosis Normalized to IAHA at pH 6.0 (ratio to IAHA) [1] of 98.9 was found for “anti-O4 hIgG1 M252Y/T256V/V308P/N434F (antibody)” in this work.
A Transcytosis Normalized to IAHA at pH 6.0 (ratio to IAHA) [1] of 209 was found for “anti-O4 hIgG1 M252Y/T256V/V308P/N434W (antibody)” in this work.
A Transcytosis Normalized to IAHA at pH 6.0 (ratio to IAHA) [1] of 183 was found for “anti-O4 hIgG1 M252Y/T256V/V308P/N434Y (antibody)” in this work.
A Transcytosis Normalized to IAHA at pH 6.0 (ratio to IAHA) [1] of 147 was found for “anti-O4 hIgG1 M252Y/T256W/V308P/N434W (antibody)” in this work.
A Transcytosis Normalized to IAHA at pH 6.0 (ratio to IAHA) [1] of 588 was found for “anti-O4 hIgG1 M252Y/T256W/V308P/N434Y (antibody)” in this work.
A Transcytosis Normalized to IAHA at pH 6.0 (ratio to IAHA) [1] of 8.35 was found for “anti-O4 hIgG1 M252Y/T256Y/V308P/N434Y (antibody)” in this work.
A Transcytosis Normalized to IAHA at pH 6.0 (ratio to IAHA) [1] of 281 was found for anti-O4 hIgG1 M252Y/V308P (antibody) in this work.
A Transcytosis Normalized to IAHA at pH 6.0 (ratio to IAHA) [1] of 122 was found for “anti-O4 hIgG1 WT (wild type Fc) (antibody)” in this work.
A Kd [2] of 0.109 nM, a koff [2] of 0.000201 s⁻¹ and a kon [2] of 1.84e+06 M⁻¹ s⁻¹ were found for “hIgG1 M252Y/N286E/V308P/M428I/N434Y, O4 VH with Ab6 light chain (antibody)” in this work. The Kd [3] was 1030 nM, the koff [3] was 1.03 s⁻¹ and the kon [3] was 1e+06 M⁻¹ s⁻¹.
A Kd [2] of 5.48 nM, a koff [2] of 0.00756 s⁻¹ and a kon [2] of 1.38e+06 M⁻¹ s⁻¹ were found for “hIgG1 M252Y/N434Y/Y436V, O4 VH with Ab6 light chain (antibody)” in this work. For the same substance, the Kd [3] was 25700 nM, the koff [3] was 1.14 s⁻¹ and the kon [3] was 44300 M⁻¹ s⁻¹.
A Kd [2] of 21.5 nM, a koff [2] of 0.0139 s⁻¹ and a kon [2] of 648000 M⁻¹ s⁻¹ were found for “hIgG1 M252Y/S254T/T256E/V308P, O4 VH with Ab6 light chain (antibody)” in this work. It also gave a Kd [3] of 975 nM, a koff [3] of 1.96 s⁻¹ and a kon [3] of 2.01e+06 M⁻¹ s⁻¹.
A Kd [2] of 0.471 nM, a koff [2] of 0.000795 s⁻¹ and a kon [2] of 1.69e+06 M⁻¹ s⁻¹ were found for “hIgG1 M252Y/S254T/T256E/V308P/N434W, O4 VH with Ab6 light chain (antibody)” in this work. For the same substance, the Kd [3] was 122 nM, the koff [3] was 0.00101 s⁻¹ and the kon [3] was 8320 M⁻¹ s⁻¹.
A Kd [2] of 31.7 nM, a koff [2] of 0.0177 s⁻¹ and a kon [2] of 557000 M⁻¹ s⁻¹ were found for “hIgG1 M252Y/S254T/V308P, O4 VH with Ab6 light chain (antibody)” in this work. For the same substance, the Kd [3] was 76700 nM, the koff [3] was 1.13 s⁻¹ and the kon [3] was 14700 M⁻¹ s⁻¹.
A Kd [2] of 1.31 nM, a koff [2] of 0.00143 s⁻¹ and a Kd [3] of 239 nM were found for “hIgG1 M252Y/T256K/V308P/N434W, O4 VH with Ab6 light chain (antibody)” in this work.
A Kd [2] of 37.4 nM, a koff [2] of 0.0279 s⁻¹ and a kon [2] of 745000 M⁻¹ s⁻¹ were found for “hIgG1 M252Y/V308P, O4 VH with Ab6 light chain (antibody)” in this work. It also gave a Kd [3] of 51.8 nM, a koff [3] of 0.00221 s⁻¹ and a kon [3] of 42600 M⁻¹ s⁻¹.
